Experimental data reported in ChEMBL document CHEMBL2074072, “Transport of glutathione, glucuronate, and sulfate conjugates by the MRP gene-encoded conjugate export pump” (Cancer Res, 1996).

Substrate: N[C@@H](CCC(=O)N[C@H](CSc1ccc([N+](=O)[O-])cc1[N+](=O)[O-])C(=O)NCC(=O)O)C(=O)O
Assay: TP_TRANSPORTER: uptake in membrane vesicle from MRP1-expressing HeLa cells
Type: functional, cell membranes

B1: Multidrug resistance-associated protein 1 (Homo sapiens) (protein)
chain: MALRGFCSADGSDPLWDWNVTWNTSNPDFTKCFQNTVLVWVPCFYLWACFPFYFLYLSRHDRGYIQMTPLNKTKTALGFLLWIVCWADLFYSFWERSRGIFLAPVFLVSPTLLGITMLLATFLIQLERRKGVQSSGIMLTFWLVALVCALAILRSKIMTALKEDAQVDLFRDITFYVYFSLLLIQLVLSCFSDRSPLFSETIHDPNPCPESSASFLSRITFWWITGLIVRGYRQPLEGSDLWSLNKEDTSEQVVPVLVKNWKKECAKTRKQPVKVVYSSKDPAQPKESSKVDANEEVEALIVKSPQKEWNPSLFKVLYKTFGPYFLMSFFFKAIHDLMMFSGPQILKLLIKFVNDTKAPDWQGYFYTVLLFVTACLQTLVLHQYFHICFVSGMRIKTAVIGAVYRKALVITNSARKSSTVGEIVNLMSVDAQRFMDLATYINMIWSAPLQVILALYLLWLNLGPSVLAGVAVMVLMVPVNAVMAMKTKTYQVAHMKSKDNRIKLMNEILNGIKVLKLYAWELAFKDKVLAIRQEELKVLKKSAYLSAVGTFTWVCTPFLVALCTFAVYVTIDENNILDAQTAFVSLALFNILRFPLNILPMVISSIVQASVSLKRLRIFLSHEELEPDSIERRPVKDGGGTNSITVRNATFTWARSDPPTLNGITFSIPEGALVAVVGQVGCGKSSLLSALLAEMDKVEGHVAIKGSVAYVPQQAWIQNDSLRENILFGCQLEEPYYRSVIQACALLPDLEILPSGDRTEIGEKGVNLSGGQKQRVSLARAVYSNADIYLFDDPLSAVDAHVGKHIFENVIGPKGMLKNKTRILVTHSMSYLPQVDVIIVMSGGKISEMGSYQELLARDGAFAEFLRTYASTEQEQDAEENGVTGVSGPGKEAKQMENGMLVTDSAGKQLQRQLSSSSSYSGDISRHHNSTAELQKAEAKKEETWKLMEADKAQTGQVKLSVYWDYMKAIGLFISFLSIFLFMCNHVSALASNYWLSLWTDDPIVNGTQEHTKVRLSVYGALGISQGIAVFGYSMAVSIGGILASRCLHVDLLHSILRSPMSFFERTPSGNLVNRFSKELDTVDSMIPEVIKMFMGSLFNVIGACIVILLATPIAAIIIPPLGLIYFFVQRFYVASSRQLKRLESVSRSPVYSHFNETLLGVSVIRAFEEQERFIHQSDLKVDENQKAYYPSIVANRWLAVRLECVGNCIVLFAALFAVISRHSLSAGLVGLSVSYSLQVTTYLNWLVRMSSEMETNIVAVERLKEYSETEKEAPWQIQETAPPSSWPQVGRVEFRNYCLRYREDLDFVLRHINVTINGGEKVGIVGRTGAGKSSLTLGLFRINESAEGEIIIDGINIAKIGLHDLRFKITIIPQDPVLFSGSLRMNLDPFSQYSDEEVWTSLELAHLKDFVSALPDKLDHECAEGGENLSVGQRQLVCLARALLRKTKILVLDEATAAVDLETDDLIQSTIRTQFEDCTVLTIAHRLNTIMDYTRVIVLDKGEIQEYGAPSDLLQQRGLFYSMAKDAGLV
In the case of B1, the Km is reported as 3.6 µM.
